Square brackets hold non-standard residues; d marks the D form. Ends that are not written are not given here. Peptide text beside a SMILES is read from it. * marks the point of attachment. X1 = CN(C)c1ccc2c(-c3ccc(C(=O)NCCCCCN4C(=O)CC(*)C4=O)cc3C(=O)[O-])c3ccc(=[N+](C)C)cc-3oc2c1; pY = N[C@@H](Cc1ccc(OP(=O)(O)O)cc1)C(=O)O
Key:
[1] = molecular target: ZAP-Src chimera; assay: Fluorescence polarization 2pY binding to ZAP-Src chimera; settings: read-out: binding constant for 2pY peptide and the ZAP-Src chimera; FP, TAMRA-2pY
[2] = molecular target: T1, ZAP-70 (Homo sapiens, UniProt P43403); assay: TR-FRET ZAP-70:2pY binding / inhibition assay; settings: read-out: KD, ZAP-70 binding to AlexaFluor488-2pY
T1 sequence (P43403 1-606): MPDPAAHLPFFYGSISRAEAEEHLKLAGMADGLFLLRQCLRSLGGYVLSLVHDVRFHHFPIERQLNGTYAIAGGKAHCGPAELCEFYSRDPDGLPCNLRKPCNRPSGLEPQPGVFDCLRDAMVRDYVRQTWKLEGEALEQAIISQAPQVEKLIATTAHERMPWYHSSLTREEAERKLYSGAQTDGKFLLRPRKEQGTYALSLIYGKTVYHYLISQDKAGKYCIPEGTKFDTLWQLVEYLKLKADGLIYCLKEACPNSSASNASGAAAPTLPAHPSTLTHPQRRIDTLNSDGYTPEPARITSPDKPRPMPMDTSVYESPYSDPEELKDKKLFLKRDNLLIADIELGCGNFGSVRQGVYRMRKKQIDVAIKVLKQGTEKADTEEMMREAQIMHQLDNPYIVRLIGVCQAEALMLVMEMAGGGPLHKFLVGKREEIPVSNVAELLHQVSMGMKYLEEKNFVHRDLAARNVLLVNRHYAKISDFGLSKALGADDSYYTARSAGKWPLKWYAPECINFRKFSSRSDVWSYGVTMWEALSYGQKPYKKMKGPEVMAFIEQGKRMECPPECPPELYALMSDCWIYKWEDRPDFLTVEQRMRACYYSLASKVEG

[3] = molecular target: T2, isolated tandem SH2 domains of ZAP-70 (Homo sapiens, UniProt P43403); assay: Fluorescence polarization assay with the isolated tandem SH2 unit; format: binding; settings: data not shown
T2 sequence (P43403 1-259 limits assumed): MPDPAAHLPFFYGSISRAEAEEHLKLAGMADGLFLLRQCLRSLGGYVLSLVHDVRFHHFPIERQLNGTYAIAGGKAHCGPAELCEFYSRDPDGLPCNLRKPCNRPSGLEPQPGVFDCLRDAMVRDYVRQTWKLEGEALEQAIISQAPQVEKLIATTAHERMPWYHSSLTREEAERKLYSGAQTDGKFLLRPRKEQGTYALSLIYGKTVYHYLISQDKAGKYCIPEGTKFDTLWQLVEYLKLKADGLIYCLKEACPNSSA

[4] = molecular target: 2pY ITAM peptide ITAM (Homo sapiens) (UniProt P20963); settings: cited from earlier work
[5] = molecular target: T3, ZAP-70 Y315F/Y319F (UniProt P43403 1-619, Y315F | Y319F); assay: fluorescence polarisation
T3 sequence (looked up): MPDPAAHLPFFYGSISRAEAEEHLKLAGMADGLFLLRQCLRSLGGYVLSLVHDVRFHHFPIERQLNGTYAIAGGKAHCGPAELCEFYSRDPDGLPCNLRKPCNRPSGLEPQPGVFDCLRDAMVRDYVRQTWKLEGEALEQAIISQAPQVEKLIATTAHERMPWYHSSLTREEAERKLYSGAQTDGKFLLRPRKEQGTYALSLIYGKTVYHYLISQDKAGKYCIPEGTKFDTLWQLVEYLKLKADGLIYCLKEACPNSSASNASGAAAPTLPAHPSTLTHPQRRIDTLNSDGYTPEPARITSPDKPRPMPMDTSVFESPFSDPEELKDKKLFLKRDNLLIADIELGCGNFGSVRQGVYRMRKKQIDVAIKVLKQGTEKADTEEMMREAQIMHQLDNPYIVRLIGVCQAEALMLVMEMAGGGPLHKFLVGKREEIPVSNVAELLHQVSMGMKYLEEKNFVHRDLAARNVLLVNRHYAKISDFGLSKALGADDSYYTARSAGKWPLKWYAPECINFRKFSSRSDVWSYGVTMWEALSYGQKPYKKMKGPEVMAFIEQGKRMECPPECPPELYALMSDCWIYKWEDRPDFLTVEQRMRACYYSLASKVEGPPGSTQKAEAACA

[6] = molecular target: T4, ZAP-70 (zeta-associated protein of 70 kDa), construct spanning residues 1-606, wild type (UniProt P43403 1-606); assay: fluorescence polarisation
T4 sequence (looked up): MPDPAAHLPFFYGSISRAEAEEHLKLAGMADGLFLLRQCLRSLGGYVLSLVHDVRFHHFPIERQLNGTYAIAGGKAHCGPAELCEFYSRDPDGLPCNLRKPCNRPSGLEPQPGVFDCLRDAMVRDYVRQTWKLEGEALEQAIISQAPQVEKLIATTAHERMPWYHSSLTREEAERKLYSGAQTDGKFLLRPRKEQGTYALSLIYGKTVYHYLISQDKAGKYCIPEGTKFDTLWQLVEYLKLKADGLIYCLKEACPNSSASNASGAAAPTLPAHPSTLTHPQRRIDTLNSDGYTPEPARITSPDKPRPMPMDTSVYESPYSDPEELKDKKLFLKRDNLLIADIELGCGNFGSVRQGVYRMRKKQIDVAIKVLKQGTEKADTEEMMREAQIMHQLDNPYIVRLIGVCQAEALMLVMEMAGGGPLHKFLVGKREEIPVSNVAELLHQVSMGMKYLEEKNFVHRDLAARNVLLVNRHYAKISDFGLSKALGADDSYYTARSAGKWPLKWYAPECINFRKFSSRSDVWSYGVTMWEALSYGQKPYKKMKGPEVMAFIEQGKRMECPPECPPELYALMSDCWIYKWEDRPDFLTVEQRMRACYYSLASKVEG

Chain of ZAP-70 (from UniProt P43403) (P43403 whole entry): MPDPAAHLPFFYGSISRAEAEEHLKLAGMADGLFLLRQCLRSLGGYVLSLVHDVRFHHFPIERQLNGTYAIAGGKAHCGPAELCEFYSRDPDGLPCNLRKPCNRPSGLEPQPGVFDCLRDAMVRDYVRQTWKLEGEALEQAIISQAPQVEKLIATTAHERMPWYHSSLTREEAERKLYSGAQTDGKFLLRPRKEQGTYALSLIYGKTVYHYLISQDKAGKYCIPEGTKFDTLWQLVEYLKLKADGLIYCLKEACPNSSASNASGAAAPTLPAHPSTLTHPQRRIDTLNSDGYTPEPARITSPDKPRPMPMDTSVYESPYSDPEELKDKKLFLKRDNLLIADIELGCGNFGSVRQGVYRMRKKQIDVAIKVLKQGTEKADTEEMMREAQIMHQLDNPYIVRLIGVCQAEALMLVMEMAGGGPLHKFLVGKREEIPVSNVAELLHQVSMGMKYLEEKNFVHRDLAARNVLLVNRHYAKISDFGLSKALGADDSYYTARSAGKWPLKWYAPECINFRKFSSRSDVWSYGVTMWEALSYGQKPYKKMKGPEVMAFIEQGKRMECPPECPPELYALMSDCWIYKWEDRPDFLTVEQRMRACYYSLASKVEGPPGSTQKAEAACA

With `CC(C)C[C@H](NC(=O)[C@H](CC(N)=O)NC(=O)[C@H](CC(C)C)NC(=O)[C@H](CCC(=O)O)NC(=O)[C@H](CC(N)=O)NC(=O)[C@H](Cc1ccc(OP(=O)(O)O)cc1)NC(=O)[C@H](CC(C)C)NC(=O)[C@H](CCC(N)=O)NC(=O)[C@H](CC(N)=O)NC(=O)CNC(=O)[C@@H](N)CSC1CC(=O)N(CCCCCNC(=O)c2ccc(-c3c4ccc(=[N+](C)C)cc-4oc4cc(N(C)C)ccc34)c(C(=O)[O-])c2)C1=O)C(=O)NCC(=O)N[C@@H](CCCNC(=N)N)C(=O)N[C@@H](CCCNC(=N)N)C(=O)N[C@@H](CCC(=O)O)C(=O)N[C@@H](CCC(=O)O)C(=O)N[C@@H](Cc1ccc(OP(=O)(O)O)cc1)C(=O)N[C@@H](CC(=O)O)C(=O)N[C@H](C(=O)N[C@@H](CC(C)C)C(=O)N[C@@H](CC(=O)O)C(=O)O)C(C)C` (stereo partly drawn) [TAMRA-2pY] (H-C(X1)GNQL[pY]NELNLGRREE[pY]DVLD-OH; N-terminus and C-terminus assumed) the Kd [1] was 15.8 ± 1.3 nM.

With “2pY: fluorescently labeled doubly phosphorylated ITAM peptide of the ζ chain (CGNQLpYNELNLGRREEpYDVLD) (C(TAMRA C5 maleimide)GNQL[pY]NELNLGRREE[pY]DVLD)” the Kd [2] was 55.4 ± 7.1 nM and the “dissociation constant, tandem SH2 unit and 2pY peptide” value [3] was “nearly identical to the Src-ZAP fusion protein”.

In the case of ZAP-70 (from UniProt P43403), the Kd [4] is listed as 76.6 nM.

With C(TAMRA C5 maleimide)GNQL[pY]NELNLGRREE[pY]DVLD the Kd [5] was 82.2 ± 5.6 nM and the Kd [6] was 45.7 ± 4.7 nM.
